Key:
[1] = target: full-length histone H4 with L-isoaspartate at position 24 (H4isoD24), semisynthetic (UniProt P62805)
[2] = target: full-length histone H4 with the canonical Asp at position 24 (H4D24), semisynthetic (UniProt P62805)

Row | Substance | k (1,obs), rate of H4K20 monomethylation by Set8 on 12-mer nucleosome arrays containing H4isoD24 (with Suv4-20h1 and AdoMet; HRMS) [1] [min^–1] | k (1,obs), rate of H4K20 monomethylation by Set8 on 12-mer nucleosome arrays containing H4D24 (with Suv4-20h1 and AdoMet; HRMS) [2] [min^–1] | k (2,obs), rate of H4K20me1 to H4K20me2 methylation by Suv4-20h1 on 12-mer nucleosome arrays containing H4isoD24 (with Set8 and AdoMet; HRMS) [1] [min^–1] | k (2,obs), rate of H4K20me1 to H4K20me2 methylation by Suv4-20h1 on 12-mer nucleosome arrays containing H4D24 (with Set8 and AdoMet; HRMS) [2] [min^–1]
1 | methyltransferase Set8 (from UniProt Q9NQR1 1-393) (enzyme) | 0.0016 | 0.0059 | – | –
2 | methyltransferase Suv4-20h1 (from UniProt Q4FZB7 1-885) (enzyme) | – | – | 0.002 | 0.033

Reference: article PMC11826994
